In patent US20240301052A1 (LANOVA MEDICINES DEVELOPMENT, published 2024):
Read-outs that look alike come from different tables or passages of the source.

How the values were obtained:
human SLC34A2 [1] = biological target: T1, human SLC34A2 (human, UniProt O95436 1-690); assay: FACS, RMG-1 cells
T1 construct: whole, on cells; also called human solute carrier 34 A2; NaPi2b
T1 sequence (looked up): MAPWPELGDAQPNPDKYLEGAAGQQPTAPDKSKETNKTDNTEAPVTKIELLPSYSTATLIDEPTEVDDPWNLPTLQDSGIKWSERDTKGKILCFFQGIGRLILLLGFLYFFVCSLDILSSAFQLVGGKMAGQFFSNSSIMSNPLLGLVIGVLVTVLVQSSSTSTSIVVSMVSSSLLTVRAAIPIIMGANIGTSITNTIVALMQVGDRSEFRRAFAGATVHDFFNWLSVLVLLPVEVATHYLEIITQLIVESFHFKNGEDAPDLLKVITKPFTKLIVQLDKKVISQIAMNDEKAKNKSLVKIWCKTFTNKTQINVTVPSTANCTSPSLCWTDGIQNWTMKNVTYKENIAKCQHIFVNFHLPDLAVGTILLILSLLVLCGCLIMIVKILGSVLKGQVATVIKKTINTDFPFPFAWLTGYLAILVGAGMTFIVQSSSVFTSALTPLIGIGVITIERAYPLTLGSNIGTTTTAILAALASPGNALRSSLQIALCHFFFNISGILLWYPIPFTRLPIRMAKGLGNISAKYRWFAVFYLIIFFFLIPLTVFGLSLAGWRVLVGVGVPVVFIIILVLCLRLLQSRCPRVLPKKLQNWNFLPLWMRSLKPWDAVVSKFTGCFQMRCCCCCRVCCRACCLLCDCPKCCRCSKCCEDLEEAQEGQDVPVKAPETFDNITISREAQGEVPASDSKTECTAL
Description: Based on the foregoing cell-based binding results, some of the chimeric antibodies were selected for further cell based binding on human SLC34A2 expressing cells using flow cytometry. RMG-1 cells were incubated with the selected chimeric antibodies (from 200 nM, 4 folds dilution, 8 points). After incubation at 4° C. for 60 minutes, the cells were washed with FACS buffer twice, then stained with fluorescent conjugated secondary antibody at 4° C. for 30 minutes. Afterwards the cells were washed twice and analyzed by flow cytometry.

Cynomolgus SLC34A2 = biological target: T2, Cynomolgus SLC34A2 (Cynomolgus, UniProt A0A2K5UHY1 1-690); assay: FACS, cells expressing Cynomolgus SLC34A2
T2 construct: whole, on cells; also called Cyno SLC34A2
T2 sequence: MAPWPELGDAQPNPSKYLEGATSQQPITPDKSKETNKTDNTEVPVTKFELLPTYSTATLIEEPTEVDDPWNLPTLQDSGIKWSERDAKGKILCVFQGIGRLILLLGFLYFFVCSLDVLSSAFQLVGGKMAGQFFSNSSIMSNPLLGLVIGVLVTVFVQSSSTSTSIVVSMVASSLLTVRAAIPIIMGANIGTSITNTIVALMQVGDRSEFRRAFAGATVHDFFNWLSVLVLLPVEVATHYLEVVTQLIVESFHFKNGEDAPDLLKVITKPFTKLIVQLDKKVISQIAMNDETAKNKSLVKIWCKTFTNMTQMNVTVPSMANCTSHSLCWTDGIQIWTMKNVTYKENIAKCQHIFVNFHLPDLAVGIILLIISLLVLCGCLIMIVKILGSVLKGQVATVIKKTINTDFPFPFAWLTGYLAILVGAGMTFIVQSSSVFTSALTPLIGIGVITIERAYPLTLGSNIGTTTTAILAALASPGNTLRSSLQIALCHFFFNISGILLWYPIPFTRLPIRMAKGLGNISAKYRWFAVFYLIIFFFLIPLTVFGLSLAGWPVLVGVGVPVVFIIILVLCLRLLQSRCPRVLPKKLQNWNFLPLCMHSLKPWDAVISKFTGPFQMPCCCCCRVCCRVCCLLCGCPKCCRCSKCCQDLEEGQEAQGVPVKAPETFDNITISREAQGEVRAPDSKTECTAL

human SLC34A2 [2] = biological target: T1, human SLC34A2; assay: FACS, HEK293/human SLC34A2 cells
Description: The PTM-derisked VH chains were first tested for their impact on target binding. Cell based binding of PTM Abs on human SLC34A2 expressing cells were assessed using flow cytometry. Briefly, the HEK293/H_SLC34A2 cells were incubated with PTM Abs (from 200 nM, 4 folds dilution, 8 points). After incubation at 4° C. for 60 minutes, the cells were washed with FACS buffer twice, then stained with fluorescent conjugated secondary antibody at 4° C. for 30 minutes. After that the cells were washed twice and analyzed by flow cytometry.

Rhesus SLC34A2 [3] = biological target: T3, Rhesus SLC34A2 (Rhesus, UniProt F7HDA3 1-690); assay: FACS, HEK293/Rhesus SLC34A2 cells
T3 construct: whole, on cells
T3 sequence: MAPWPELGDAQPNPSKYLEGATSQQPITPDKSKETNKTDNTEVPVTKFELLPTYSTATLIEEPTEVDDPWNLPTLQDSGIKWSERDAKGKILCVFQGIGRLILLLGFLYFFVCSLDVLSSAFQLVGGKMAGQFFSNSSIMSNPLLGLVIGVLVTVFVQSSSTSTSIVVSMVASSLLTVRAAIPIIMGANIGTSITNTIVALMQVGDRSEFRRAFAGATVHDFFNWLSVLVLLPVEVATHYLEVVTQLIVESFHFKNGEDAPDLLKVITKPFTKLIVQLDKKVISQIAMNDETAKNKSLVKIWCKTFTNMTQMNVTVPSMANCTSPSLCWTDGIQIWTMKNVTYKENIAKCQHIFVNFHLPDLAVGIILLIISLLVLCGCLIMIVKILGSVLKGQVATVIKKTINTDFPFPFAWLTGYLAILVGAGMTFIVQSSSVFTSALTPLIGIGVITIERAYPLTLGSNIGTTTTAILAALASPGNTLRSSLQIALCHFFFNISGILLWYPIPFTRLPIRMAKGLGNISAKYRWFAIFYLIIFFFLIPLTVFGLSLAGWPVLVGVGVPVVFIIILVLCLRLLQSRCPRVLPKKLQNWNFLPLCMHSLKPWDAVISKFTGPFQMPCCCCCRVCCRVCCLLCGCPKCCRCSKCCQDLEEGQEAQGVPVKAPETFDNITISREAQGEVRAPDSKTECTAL
Description: (§1) Briefly, the Rhesus SLC34A2 expressing HEK293 engineering cells (HEK293/Rhesus_SLC34A2) were incubated with chimeric Abs (from 200 nM, 4 folds dilution, 8 points). After incubation at 4° C. for 60 minutes, the cells were washed with FACS buffer twice, then stained with fluorescent conjugated secondary antibody at 4° C. for 30 minutes. After that the cells were washed twice and analyzed by flow cytometry.

human SLC34A2 [4] = biological target: T1, human SLC34A2; assay: cell-based or functional assay
human SLC34A2 [5] = biological target: T1, human SLC34A2; assay: cell-based or functional assay; remark: listed apart in the source
human SLC34A2 [6] = biological target: T1, human SLC34A2; assay: FACS, OVCAR3 cells
Rhesus SLC34A2 [7] = biological target: T3, Rhesus SLC34A2; assay: FACS, HEK293/Rhesus SLC34A2 cells; remark: listed apart in the source
human SLC34A2 [8] = biological target: T1, human SLC34A2; assay: FACS, HEK293/human SLC34A2 cells; remark: listed apart in the source
Description: as §1, with “OVCAR3 cells or HEK293 cells expressing human” for “the Rhesus”, “SLC34A2” for “SLC34A2 expressing HEK293 engineering cells (HEK293/Rhesus_SLC34A2)”, “antibodies” for “Abs”

human SLC34A2 [9] = biological target: T1, human SLC34A2; assay: FACS, OVCAR3 cells; remark: listed apart in the source
Method in brief: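 Chimeric hIgG1 antibodies titrated from 200 nM (4-fold, 8 points) on OVCAR3 cells or HEK293 cells expressing human SLC34A2, 60 min at 4° C. Bound antibody detected with fluorescent secondary antibody (30 min, 4° C) and measured by flow cytometry.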

human SLC34A2 [10] = biological target: T1, human SLC34A2; assay: FACS, OVCAR3 cells; remark: listed apart in the source
Description: The binding of these humanized antibodies to OVCAR3 cells was evaluated as described above, and the results are shown in FIG. 12A-D and Tables 16A-D.

human SLC34A2 [11] = biological target: T1, human SLC34A2; assay: FACS, OVCAR3 cells; remark: listed apart in the source
Description: (§2) In another testing, cell based binding of hu Abs on human SLC34A2 expressing cells were assessed using flow cytometry. Briefly, the HEK293/H_SLC34A2, OVCAR3 and RMG-1 cells were incubated with hu Abs. After incubation at 4° C. for 60 minutes, the cells were washed with FACS buffer twice, then stained with fluorescent conjugated secondary antibody at 4° C. for 30 minutes. After that the cells were washed twice and analyzed by flow cytometry.

human SLC34A2 [12] = biological target: T1, human SLC34A2; assay: FACS, HEK293/human SLC34A2 cells; remark: listed apart in the source
Description: as §2

human SLC34A2 [13] = biological target: T1, human SLC34A2; assay: FACS, RMG-1 cells; remark: listed apart in the source
Description: as §2

Rhesus SLC34A2 [14] = biological target: T3, Rhesus SLC34A2; assay: FACS, HEK293/Rhesus SLC34A2 cells; remark: listed apart in the source
human SLC34A2 [15] = biological target: T1, human SLC34A2; assay: cell-based or functional assay; remark: listed apart in the source

B1: xi55E5B6D12 hIgG1 (antibody, V domains shown)
VH: QVQLQQSGAEVVNSGASVKMSCKASGYTFTTYNMHWVKQTPGQGLEWIGAIYPGNGDTSYNQRFKGKATFTADRSSGTAYMQLSSLPSEDSAVYYCARGGYANGALVDWGQGTLVTVSA
VL: DILMTQSHKFMSTSVGDRVTITCKASQDVGTAVAWYQNKPGQSPKLLIFWTSTRHTGVPDRFTGSGSGTDFTLTISNVQSEDLADYFCQQYSRQPLTFGPGTKLEIK
notes: chimeric, hIgG1
Human SLC34A2 [1]
  EC50: 3.48 nM
  Top (MFI): 9500 MFI
Cynomolgus SLC34A2
  EC50: 2.7 nM
  Top (MFI): 3540 MFI
Human SLC34A2 [2]
  EC50: 1.48 nM
  Top (MFI): 30400 MFI
Rhesus SLC34A2 [3]
  EC50: 2.46 nM
  Top (MFI): 15900 MFI
Human SLC34A2 [4]
  ADCC reporter EC50: 3 nM
  ADCC reporter Top (MFI): 530000 MFI
Human SLC34A2 [5]
  cytotoxicity EC50: 0.69 nM
  cytotoxicity Inhibition %: 96.7%
Human SLC34A2 [6]
  EC50: 5.1 nM
  Top (MFI): 71400 MFI
Rhesus SLC34A2 [7]
  EC50: 4.9 nM
  Top (MFI): 46400 MFI
Human SLC34A2 [8]
  EC50: 1.8 nM
  Top (MFI): 115000 MFI
Human SLC34A2 [9]
  EC50: 3.31 nM
  Top (MFI): 42900 MFI

B2: 30H9B8F9 VH_P1/VL hIgG1 (antibody, V domains shown)
VH: QVQLQQPGAELVKPGASVKMSCKTSGYTFTTNNMHWVKQTPGQGLEWIGAIYPGSGATAYNQKFKGKATLTADKSSSTAYMQLSSLTSEASAVYYCARGMYGHGAMDYWGQGTSVIVSS
VL: DIVMTQSHKFMSRSVGDRVRITCKASQDVGTAVAWYQQKPGQSPKLLIYWATTRHSGVPDRFTGSGSGTDFIFTISNVQSEDLADYFCQQYSSNPLTFGAGTKLELK
notes: PTM-derisked chimeric, hIgG1; that P1 is the N=>S version follows from the humanized .p1 chains; also called 30H9B8F9.p1 hIgG1
Human SLC34A2 [10]
  EC50: 0.68 nM
  Top (MFI): 28700 MFI
Human SLC34A2 [2]
  EC50: 0.89 nM
  Top (MFI): 31700 MFI
Human SLC34A2 [6]
  EC50: 1.5 nM
  Top (MFI): 70400 MFI
Human SLC34A2 [11]
  EC50: 0.37 nM
Human SLC34A2 [12]
  EC50: 1.18 nM
  Top: 35700 MFI
Rhesus SLC34A2 [7]
  EC50: 2 nM
  Top (MFI): 47400 MFI
Human SLC34A2 [13]
  EC50: 1.09 nM
  Top: 11100 MFI
Rhesus SLC34A2 [14]
  EC50: 0.8 nM
  Top (MFI): 17000 MFI
Human SLC34A2 [15]
  ADCC reporter EC50: 2.52 nM
  ADCC reporter Top (MFI): 126000 MFI
